Test results reported in the DeepSol protein solubility set.

Test: soluble on expression in E. coli; label from the status in PepcDB or PDB records

Sequence	soluble on expression in E. coli
PVGYFTMYRFNFKYPPFDNKKIRQAAMYAIGQEDVMKALVGNPKYWQTCASLWGCGTPFETDIGKDMVVPSNIEKARALLKEAGYDNTPILVMHATDVGTLSAQPVVMAQALRKAGFNVNLAAMDWQSVATRRASKAAPAQGGWNIHNTNWYATDIMDPVRSAPAAANGDNAWFGWPDIPEIEALRTRFALSSDPAEQKKLAEEAQRIGIDEGLYVPLGQMSVPTVYTTKLSGLVHAPVFAFWNVKKAP	not soluble
PVNDEVEAVKNMHLIGQSQVAFREWNQKWVDLSLNSFADIENNLFEAEGYNHSFRFLKASHQIDQIESQITLIEEDIAAIRNALADLEKQESKNSGRVLHALDLFEELQHRVAENSEQYGQALDEIEKQLENIQSEFSQFVTLNSSGDPVEAAVILDNTENHILALSHIVDRVPALVTTLSTELPDQLQDLEAGYRKLIDANYHFVETDIEARFHLLYEAFKKNQENIRQLELDNAEYENGQAQEEINALYDIFTREIAAQKVVENLLATLPTYLQHMKENNTLLGEDIARLNKTYLLPETAASHVRRIQTELESFEAAIVEVTSNQEEPTQAYSVLEENLEDLQTQLKDIEDEQISVSERLTQIEKDDINARQKANVYVNRLHTIKRYMEKRNLPGIPQTFLKLFFTASNNTEDLMVELEQKMINIESVTRVLEIATNDMEALETETYNIVQYATLTEQLLQYSNRYRSFDERIQEAFNEALDIFEKEFDYHASFDKISQALEVAEPGVTNRFVTSYEKTRETI	not soluble
PVSWVLQQAPTVKGLDIQGAHGSVWQGQASSVRWQRQNLGQVNWDFQWSSLFTGKAEFSVRFGRGSDMNIRGRGLVGYSLSDGLYAENLVASIPASKAVEQARLPVPIGVDGQLELNIRHATYAAPWCKTGEGTLVWSASGIQSPVGSLELGPVIADLKCQDSVLTASGEQTSTQVSSAFSAEMMPNQRYSTKAWFKPGADFPSSMGEQLKWLGQPNAQGQYEFDYKGRF	not soluble
QAAPSQVVVIRQERAGQTSVSLLWQEPEQPNGIILEYEIKYYEKDKEMQSYSTLKAVTTRATVSGLKPGTRYVFQVRARTSAGCGRFSQAMEVETGKP	soluble
QCYHGNGQSYRGTFSTTVTGRTCQSWSSMTPHRHQRTPENYPNDGLTMNYCRNPDADTGPWCFTMDPSIRREYCNLTRC	soluble
QEQQQELAQLEMARSALDSLSELICLQDCQGNLLTTNRAFDQFWEGRREEAITATASRVATRKSERKWTTDTQGRSCLLEVNLSSLVSPSGELLGTLSISHDVT	not soluble
QGMISFTQQNEQEADRIGIQVLQRSGFDPQAMPTFLEKLLDQARYSSRPPEILLTHPLPESRLADARNRANQMRPIVVQSSEDFYLAKVRTLGMYNSGRNQLTSDLLDEWAKGNVRQQRAAQYGRALQAMEANKYDEARKTLQPLLAAEPGNAWYLDLATDIDLGQNKANDAINRLKNARDLRTNPVLQLNLANAYLQGGQPQEAANILNRYTFNNKDDSNGWDLLAQAEAALNNRDQELAARAEGYALAGRLDQAISLLSSASS	not soluble
QKPKLLYCSNGGYFLRIFPDGKVDGTRDRSDPYIQLQFYAESVGEVYIKSLETGQYLAMDSDGQLYASQSPSEECLFLERLEENNYNTYKSKVHADKDWFVGIKKNGKTKPGSRTHFGQKAILFLPLPVSSD	soluble
QPVACPDCGPTLRLVDASGAGLPGDPVDQTVELLTEGKIVAIKGLGGYHLAVDAANDAAVAELRRRKHRDEKPFAVMARDMEAVARFALVDSVEARLLTGPEHPIVLLRKRPSTILSGRVAPANGYIGTMLPYTPLHHLLLEERFAALVMTSGNLSDEPISYRDDEAVERLSAIADAFLVHDREIRTRIDDSVIRVFRGSPLFLRRSRGYVPREVRLPVEIP	not soluble
QTLTEEEVLKKLDKEQMRASFEDMRRIMPDLGFEAKGYALSFEQLAQLKIPVIVYLKYRKDDHFSVLRGIDGNTVLLADPSLGHVSMSRAQFLDAWQTREGNLAGKILAVIPKKAETISNKLFFTQHPKRQTEFTVGQIRQARAE	not soluble
QVEFYFSEFNFPYDRFLRTTAEKNDGWVPISTIATFNRMKKYRPVDKVIEALRSSEILEVSADGENVKRRVPLDLTAARNARIEQNQRTLAVMNFPHEDVEASQIPELQENLEAFFKKLGEINQVRLRRDHRNKKFNGTVLVEFKTIPECEAFLKSYSNDDESNEILSYEGKKLSVLT	not soluble
QVPPSFFQRIYRYHREHGGRFGTVHDVGAGIGPYAGELRSQFPHVIVSDIVPKNVQLAEAHLGRDGFRYRAAPVEVADDLPPGSVDLAFATNVMHFADQHAAMQAIATQLRPGGTFACAGFGPARFDDPDIQDVWERISQQGGRILLGMAEHPPDTINVMSRSSKEYNVAPLEPQWFRPGALRIRLNMAQGGITGLLPPERQQEVTDPDFAGPRDVVVYETNEEWRFETDWEGFLQHFRSFPHAGADPAAFTGLLQELKDLLDEGRCLRGCWPATLILATR	not soluble
QVQLQESGPGLVKPSETLSLTCTVSGASISSYYWSWIRQPPGKGLEWIGYIGGEGSTNYNPSLKSRVTISVDTSKNQFSLKLRSVTAADTAVYYCARERLGIGDYWGQGTLVTVSSASTKGPSVFPLAPSSKSTSGGTAALGCLVKDYFPEPVTVSWNSGALTSGVHTFPAVLQSSGLYSLSSVVTVPSSSLGTQTYICNVNHKPSNTKVDKKVEPK	soluble
QYFTGGLSLEPSNQAGFSQSQSASNTAAQDENAQFVAAILGTTETVWNQLLQGQYVEPKLVLYRNMTSTGCGMGQAQSGPFYCPADGKVYIDLSFLEELKKLGASGDFAFAYVIAHEVGHHVQNLLGTSTKVRQAQQAAGKAQANQLSVALELQADCYAGVWGHYVDRQLNLLEPGDVEEGIAAASAVGDDRLQKMAGRAVQPEAFTHGSSADRVKWFNIGFASGKPASCNTF	not soluble
QYRHLLDLQPMLEALSESSFLNQPVEGHGPLGIIAFGIGYNYAMEARKAHSIECRLLKIGQYPLPRTQVNELFEACSEVLVVEEGYPVYEELFRGYFGSAKVRGRMDGTLPRDGELTTDLVAAALGVKPPETATTPEIVVGRPPELCKGCGHRDMFDAINIAIKENADHHVFSDIGCYTLGALPPYNAIHTCVDMGAAITMAKGAADAGLRPAVCVIGDSTFAHSGMTGLLDAVNDRTPVTVIIADNNTTAMTGGQCSSASGSKLVNICIGLGVEEA	not soluble
QYRHMIGQDAGYKAAGLYYVPIESLDQQQLPVVIEKLKALPEVEGYTLTTALPASSGQSGDNLIDPVTDRELINVADLFYVDEHYLKVYDIELLEGKNFDAATEKDREIMLSKKAATELARLMNWKDGVIGKNIILTSFGRVVIRGVYDDLMLRRQHLSPYPEKLPSAIVYGDDWLHYLTIRLRHDDARLLHRVNGILSEADPYKETSFLGVEMELLSRFEAAKTFRNT	not soluble
RAGHIEVAEVEGMSFPVKLDTGADVSSINAKDIKLFQKDGKDMVSFTYENDLGMQKAFTREVVDVMKITAKKGEKANVRPVVEMHVKLGELEKKIRVNLQDRGRFHYSMILGKNFLKHGALVASETNYIVTKKPDYEK	not soluble
RELIRHGAEVHAVMSEAATKIIHPYAMEFATGNPVITEITGFIEHVELAGEHENKADLILVCPATANTISKIACGIDDTPVTTVVTTAFPHIPIMIAPAMHETMYRHPIVRENIERLKKLGVEFIGPRIEEGKAKVASIDEIVYRVIKKLHKKTLEGKRVL	not soluble
REVYVLVIGETARACNFGLYGYERNTTPLLDKMEGVVTFTDVLTQSNTTHKSVPMLLSAASAEDYDCLYRQKGIITAFKEAGFHTAFFSNQLPNHSFIDFLGMEADDWKFIKKDAPKGANISDDELLFLVEKELKAGHQKLFIVLHAYGSHFNYKERYPESMSVFKPDNLTDAKYENKEYLMNAYDNTIRYTDGFLASLITLLQKTNSFSAMLYTSDHGEDIFDDNRKLFLHASPVPSYYQLHVPFLIWLSKTYREKNVEVHEAILQNREKPVAGNASVFHTMLNLAGVQTPYRADSLSVAN	not soluble
RFEHSLGVYHLADRALAHLDISGTRADTVRAAALLHDIGHGPYGHQTEGIIQRRLDRHHDDVAHLVSNGEPGAVLAAHGLDPDRVAALVAGHGKLGQLVAGELDVDRMDYLVRD	soluble
RHLCESRQQAQRWIRAGAVHVNHIPIDKPGTLVAVDATIQVKAKPAYVSRGGEKLAHALGVFPVVVRDRVCLDGGISTGGFTDCLLQAGAQLVYGIDVGYGQVDWKLRQDPRLILRERTNLRYLTPADLYTDDGPRPDLGVVDVSFISLTKVLPALWELLLPPRELIALIKPQFEVGRDRLGKNGVVRDAKARQEAVDQVITAAAALGWQCYGVTPSPILGPAGNQEFLAHFCCGANGVLENEMVS	not soluble
RIKEKTISHWVAMQGIAMIQLNLLRTSQSQESTQATTMLGQKWYWRAKISPTPIKRMQQITISVSSKQAGPFREELIAFRYLP	not soluble
RKEEVLFGSFRLFTVTPVRYIKEIVTIGFPASIQNLIYASISMVLTRLVTGWGDTAVAIQRVGGQVESVSWMVGEGFAAAVNSFTGQNFGAGLFDRVKKGFSAAVK	not soluble
RNQVEHEAKVSLAKSFGAGIAHEMRNPLSGLCTSIDVIQSVLPNKKAMGEKDQYVMSGEDVTLLREVSEDAMNIIHSGNETIDLLLTSIDENRVSRSSFKRYSAQSVVEKAIESFSYKRSTDRFAISFDARSEFDFLGSDTLLKYVMYNLFKNAFHHRSSDEFHIHVSMQSNDTANQIVVTDNGSGIAPDVIRHIFQDFYTTGKSGSYGLGLPFCKKVMRSFGGNIKCISQPGEWSQFTLTFPPITSDTVTEIKDELTKMKSILLVSNQDIIVQKMADISRFMGFDVTVLDVKSVFKKKEYEFEFDLIFVDVESLDVLENQLDRIESLLSFTEARVVYLFEHKPAQRAKKVGHDPIWVETQAWLLNTKATIERLLYDSTYISSTLPSAPL	not soluble
RPNVERDAQRRVNIRVTDEIVTALNERRIVMAFEPVVQAVSRAPAFHECLVRMKQDDGELLLAPDIVPVAEKLGLIRLVDHRVLELVVAELAAAPGVELSLNISPDTTMDADWWASIESLLGANPGVAERLIVEITETVAIQDLDDVRGFVNRLKNFGARIAIDDFGAGYTSFRNLRNLGVDIVKIDGAFVQNIARSADDRAFVQTLIDLARRLEIKTVAEWVQDEASAIMLRDWGCDYIQGRLIGLA	not soluble
RPRGPRAVFILPVTAQGEAVLIRQFRYPLRATITEIVAGGVEKGEDLGAAAARELLEEVGGAASEWVPLPGFYPQPSISGVVFYPLLALGVTLGAAQLEDTETIERVVLPLAEVYRMLEAGEIQDGPSSLTLWQARGELTRRGLL	soluble
RQLALEAKGETPSAVTRLSVVAKSEPQDEQSRSQSARRIILSRLKAGEVDLLEEELGHLTTLTDVVKGADSLSAILPGDIAEDDITAVLCFVIEADQITFETVEVSPKISTPPVLKLAAEQAPTGRVEREKTTR	soluble
